B1: mouse TBK1 residues 1-657, K38A (GST tag cleaved) (domain or fragment, UniProt Q9WUN2 1-657, looked up)
chain: MQSTSNHLWLLSDILGQGATANVFRGRHKKTGDLYAVAVFNNISFLRPVDVQMREFEVLKKLNHKNIVKLFAIEEETTTRHKVLIMEFCPCGSLYTVLEEPSNAYGLPESEFLIVLRDVVGGMNHLRENGIVHRDIKPGNIMRVIGEDGQSVYKLTDFGAARELEDDEQFVSLYGTEEYLHPDMYERAVLRKDHQKKYGATVDLWSVGVTFYHAATGSLPFRPFEGPRRNKEVMYKIITGKPSGAISGVQKAENGPIDWSGDMPLSCSLSQGLQALLTPVLANILEADQEKCWGFDQFFAETSDVLHRMVIHVFSLQHMTAHKIYIHSYNTAAVFHELVYKQTKIVSSNQELIYEGRRLVLELGRLAQHFPKTTEENPIFVTSREQLNTVGLRYEKISLPKIHPRYDLDGDASMAKAVTGVVCYACRTASTLLLYQELMRKGVRWLVELVKDDYNETVHKKTEVVITLDFCIRNIEKTVKVYEKLMKVNLEAAELGEISDIHTKLLRLSSSQGTIESSLQDISSRLSPGGLLADTWAHQEGTHPRDRNVEKLQVLLNCITEIYYQFKKDKAERRLAYNEEQIHKFDKQKLYYHATKAMSHFSEECVRKYEAFKDKSEEWMRKMLHLRKQLLSLTNQCFDIEEEVSKYQDYTNELQET
B2: mouse TBK1 residues 1-657, S172A (GST tag cleaved) (domain or fragment, UniProt Q9WUN2 1-657, looked up)
chain: MQSTSNHLWLLSDILGQGATANVFRGRHKKTGDLYAVKVFNNISFLRPVDVQMREFEVLKKLNHKNIVKLFAIEEETTTRHKVLIMEFCPCGSLYTVLEEPSNAYGLPESEFLIVLRDVVGGMNHLRENGIVHRDIKPGNIMRVIGEDGQSVYKLTDFGAARELEDDEQFVALYGTEEYLHPDMYERAVLRKDHQKKYGATVDLWSVGVTFYHAATGSLPFRPFEGPRRNKEVMYKIITGKPSGAISGVQKAENGPIDWSGDMPLSCSLSQGLQALLTPVLANILEADQEKCWGFDQFFAETSDVLHRMVIHVFSLQHMTAHKIYIHSYNTAAVFHELVYKQTKIVSSNQELIYEGRRLVLELGRLAQHFPKTTEENPIFVTSREQLNTVGLRYEKISLPKIHPRYDLDGDASMAKAVTGVVCYACRTASTLLLYQELMRKGVRWLVELVKDDYNETVHKKTEVVITLDFCIRNIEKTVKVYEKLMKVNLEAAELGEISDIHTKLLRLSSSQGTIESSLQDISSRLSPGGLLADTWAHQEGTHPRDRNVEKLQVLLNCITEIYYQFKKDKAERRLAYNEEQIHKFDKQKLYYHATKAMSHFSEECVRKYEAFKDKSEEWMRKMLHLRKQLLSLTNQCFDIEEEVSKYQDYTNELQET

Biological target: the molecule itself
Assay: SEC

| Protein | stoichiometry N |
| --- | --- |
| B1 | 2 |
| B2 | 2 |
